# In publication PMC6913123:
# Molecular target: T1, DDX21 (Homo sapiens) (UniProt Q9NR30)
# T1 sequence: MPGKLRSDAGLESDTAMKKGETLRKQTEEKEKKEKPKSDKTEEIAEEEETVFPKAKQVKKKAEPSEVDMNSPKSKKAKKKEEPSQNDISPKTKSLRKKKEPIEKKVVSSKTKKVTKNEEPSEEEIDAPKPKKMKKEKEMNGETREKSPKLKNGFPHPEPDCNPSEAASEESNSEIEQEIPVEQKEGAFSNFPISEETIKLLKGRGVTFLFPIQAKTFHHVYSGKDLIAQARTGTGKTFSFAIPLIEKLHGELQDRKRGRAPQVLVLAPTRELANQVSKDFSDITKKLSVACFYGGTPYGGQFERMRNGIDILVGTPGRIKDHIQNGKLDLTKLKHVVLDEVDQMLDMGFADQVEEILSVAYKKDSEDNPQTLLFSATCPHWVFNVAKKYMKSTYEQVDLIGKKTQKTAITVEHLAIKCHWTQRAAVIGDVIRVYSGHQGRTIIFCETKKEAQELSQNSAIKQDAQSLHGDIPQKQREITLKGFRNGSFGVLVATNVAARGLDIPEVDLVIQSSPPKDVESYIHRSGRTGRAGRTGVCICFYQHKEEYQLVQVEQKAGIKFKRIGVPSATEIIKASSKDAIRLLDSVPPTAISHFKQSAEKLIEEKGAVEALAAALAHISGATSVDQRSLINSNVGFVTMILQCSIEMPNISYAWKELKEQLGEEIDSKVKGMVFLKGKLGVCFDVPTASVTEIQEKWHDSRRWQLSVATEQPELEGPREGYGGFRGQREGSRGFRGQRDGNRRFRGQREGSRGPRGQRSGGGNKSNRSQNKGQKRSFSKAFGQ
# Test: EMSA
sequence,measurement,value
AGUGGCAUAAACAUGGGCUUUGGCGUCAGACAGCCCUGAGCGGGGCCCCAUUGCCCCACCCCCGAGGAAGGCGAGGGGGGGUGGCAGGGGGCUGCGGAAAGGGGCUGGGCUGGGUUGGGCUGUCUGCAGCUCUAGUCCAGGAGGCUGAGACUUCGAGAGGGACUUAGAGAAGGCAGACGCAUCCCGAACUCGCUGGAGGACAAGGCUCAGCUCUUGCCAGGCCAAAUUGAGAC [MAGED2 TV2 5'-UTR],Kd,0.1 µM
